Laboratory results from the supplement of paper PMC10567573.

B1: NEUROD6 (parent)
chain: YHSPELTTPPGHGTLDNSKSMKPY
B2: TRIM35 (parent)
chain: WEVQVSPTCPVCKDRASPADLRTN

Variants of: B1
Assay: protein stability index of a GFP-peptide fusion (GPS, HEK-293T) (PSI 1-6); higher = more stable
Details: c terminus: a fixed tail appended
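Also: lentivirally expressed fusions sorted by FACS into six bins by GFP to DsRed ratio, PSI derived from sequencing read proportions per bin multiplied by bin number.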

Protein stability index, by site and new letter:
Y24: N 2.44 | C 2.38 | M 2.02 | I 2.21 | K 2.23 | H 2.45 | F 2.21 | G 2.67 | T 2.55 | R 2.48 | W 1.98 | A 2.24 | Q 2.62 | L 2.27 | S 2.36 | D 2.44 | E 2.91 | V 2.41

Variants of: B2
Assay: as above
Details: c terminus: a fixed tail appended

Protein stability index, by site and new letter:
W1: R 3.66 | Q 3.1 | V 3.4 | C 3 | I 2.08 | M 2.75 | D 3.25 | Y 2.65 | T 2.79 | G 2.92 | P 3.29 | A 3.05 | S 2.6 | L 3.13 | N 3.23 | K 3.54 | E 3.52 | F 2.85 | H 3.37
C12: I 3.4 | G 3.7 | A 4.59 | E 4.81 | H 3.46 | V 3.89 | Q 3.9 | L 3.8 | P 3.86 | K 3.88 | F 3.29 | M 4.44 | D 4.14 | T 4.54
S17: E 3.89 | N 2.51 | L 2.75 | W 3.4 | Q 2.84 | F 2.19 | I 2.66 | Y 4.01 | D 3.31 | V 2.23 | T 2.05 | M 2.01 | P 2.83 | H 2.08 | A 2.48 | C 1.81
T8: W 2.56 | I 2 | E 3.07 | K 2.39 | P 2.92 | D 3.42 | V 1.66 | G 2.48 | Q 2.33 | A 3.17 | R 1.7 | N 2.79 | L 1.88 | F 1.85 | S 2.37
P10: R 2.42 | F 2.89 | C 3.25 | L 2.65 | Y 2.29 | K 2.79 | M 2.46 | A 1.25 | W 2.51 | H 2.81 | N 2.58 | Q 3.01 | E 2.23 | I 2.34 | T 2.38 | V 2.02 | S 3.32
D14: Y 1.62 | S 2.5 | L 2.62 | A 2.49 | M 1.75 | C 1.03 | W 2.71 | P 1.9 | E 2.75 | H 1.81 | K 2.54 | I 1.93 | Q 2.18 | T 1.83 | V 1.61 | F 2.81
Q4: V 2 | N 2.73 | T 2.36 | S 1.87 | A 1.73 | Y 3.38 | C 2.2 | E 2.08 | L 2.08 | K 2.07 | W 1.48 | R 1.9 | P 3.58
C9: I 3.53 | M 3.15 | E 4.49 | V 4.11 | L 1.98 | T 3.94 | D 4.9 | N 4.34 | R 4.04 | K 4.72 | A 4.38 | W 2.52 | P 3.11 | G 3.97 | H 3.74 | Q 4.56 | Y 3.5 | F 2.85
V5: W 2.4 | Y 2.58 | S 2.94 | H 2.97 | K 2.98 | D 4.04 | A 2.15 | P 1.68 | N 2.71 | G 2.48 | T 3.03 | Q 3.37 | L 2.29 | I 2.27 | M 2.41
A16: K 2.8 | F 1.91 | S 2.42 | H 2.71 | Q 2.96 | N 1.84 | Y 2.08 | I 1.28 | L 1.82 | W 1.85 | V 2.49 | C 1.41 | P 2.29 | D 2.26 | E 2.78 | G 2.15 | T 2.79
P7: S 2.5 | D 2.43 | G 3.03 | L 1.9 | Y 2.31 | V 1.32 | M 1.33 | A 1.72 | W 2.58 | Q 2.43 | I 1.97 | R 2.19 | N 1.8 | H 2.2 | T 1.58
E2: W 1.68 | S 2.58 | P 2.12 | F 1.72 | R 1.98 | G 2.56 | N 2.3 | V 2.21 | K 2.42 | C 2.46 | D 2.2 | I 2.45 | H 2.51 | M 1.41 | A 2.48 | T 2.02
D20: C 1.91 | G 1.85 | A 2.02 | E 2.95
A19: P 2.02 | S 1.78 | T 1.75 | C 2.31 | L 2.12 | K 2.96 | N 1.91 | E 3.35 | Y 1.77 | F 2.99 | G 2.24 | I 2.05 | M 2.42 | Q 2.31 | H 2.24 | D 3.38 | W 2.3 | R 1.54
K13: M 1.94 | C 1.72 | E 2.71 | R 1.46 | T 2.31 | V 2.7 | Q 2.66 | G 1.7 | F 1.94 | L 3.25 | S 2.19 | N 2.39 | Y 2.05 | W 2.09 | P 3.74 | I 2.17 | D 2
S6: A 1.87 | L 2.6 | N 3.46 | H 3.03 | K 1.85 | E 1.71 | Q 2.53 | Y 2.07 | M 1.89 | G 2.54 | I 2.12 | F 2.4 | C 2.63 | W 1.94 | P 2.87 | D 2.84 | R 2.5 | T 2.22
P18: D 1.99 | Q 2.13 | W 1.39 | Y 2.15 | K 2.52 | H 1.6 | G 2.51 | I 2.87 | T 2.57 | F 1.95 | A 2.04 | S 2.51 | R 3.2 | V 2.57 | M 1.99 | N 2.39
V3: Q 2.96 | W 2.8 | T 3.5 | R 2.31 | P 2.49 | Y 3.35 | D 3.35 | L 2.55 | N 3.38 | F 2.39 | I 2.89 | S 3.38 | A 3.31 | C 2.11 | M 2.79 | K 2.83 | G 2.29 | H 3.16
R15: E 3.43 | T 2.54 | W 2.53 | M 2.04 | I 2.48 | P 3.31 | F 2.07 | C 2.26 | H 2.46 | L 2.47 | S 3.07 | Q 2.54 | Y 2.34 | N 2.48 | A 3.22 | V 2.74
V11: P 3.86 | R 2.93 | C 1.68 | H 1.96 | F 1.78 | M 1.23 | N 2.9 | Q 2.3 | S 1.79 | T 3.14 | W 2.88 | G 2.89 | D 3.64 | A 2.37 | I 2.24 | K 3.7 | L 1.9 | Y 1.51
